Test results as given in patent US20230212511A1.

Legend:
[1] = molecular target: full length human TpoR (wild type), expressed on transduced cells (human) (UniProt P40238); assay: cell-based or functional assay
[2] = molecular target: mutant truncated (mt) TpoR, lacking the final five amino acids (human) (UniProt P40238); assay: cell-based or functional assay

Which results are given for “recombinant human Tpo (Miltenyi Biotec) (from UniProt P40225 22-195) (ligand)”?
enrichment of TpoR positive primary human T-cells (from 20% transduced) in the presence of Tpo (% TpoR positive) [1]: 87.5; enrichment of TpoR positive primary human T-cells (from 20% transduced) in the presence of Tpo (% TpoR positive) [2]: 77.9
